Results from article doi:10.1101/2025.05.14.653996.

Biological target: actin filament, unlabelled segment of recombinant cytoplasmic β-actin (UniProt P60709)
Assay: TIRF microscopy of single actin filaments under flow in a microfluidic chamber

cluster detachment, fold slower than sfGFP-Tpm1.6	cluster detachment, fold faster at 50 mM KCl than at 100 mM KCl	fold decrease of the median detachment time from 0.01 to 0.04 pN per Tpm dimer	Substance
5.5 fold	–	–	sfGFP-Tpm1.7 (natural protein)
–	36 fold	> 100 fold	sfGFP-Tpm1.6 (natural protein)
